Results: patent publication US20250326828A1 (STAIDSON BEIJING BIOPHARMACEUTICALS, published 2025)

How the values were obtained:
human GDF15-his [1] = molecular target: T1, human GDF15-his (human); assay: cell-based or functional assay
T1 chain: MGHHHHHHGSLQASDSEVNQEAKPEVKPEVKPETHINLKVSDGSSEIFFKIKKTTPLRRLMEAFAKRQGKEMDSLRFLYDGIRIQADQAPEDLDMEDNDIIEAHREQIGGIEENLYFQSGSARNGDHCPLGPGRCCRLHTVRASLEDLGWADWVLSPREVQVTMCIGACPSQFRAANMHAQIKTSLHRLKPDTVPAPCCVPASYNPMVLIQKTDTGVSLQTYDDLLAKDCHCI

human GDF15-his [2] = molecular target: T1, human GDF15-his; assay: ELISA as in Example 2; antibody coated, human GDF15-his titrated
Description: (§1) ELISA binding assay: The purified monoclonal antibody was subjected to a binding assay with human GDF15-his protein. The binding assay was designed to characterize the binding activity of the anti-GDF15 antibody. Briefly, a 96-well plate was coated with anti-GDF15 antibody (200 ng/well) and incubated for 1 hour at 37° C. The plates were washed with PBST and then blocked for 1 hour at room temperature using 1% BSA. Then 100 µl/well of gradient-diluted human GDF15-his solution (dose range 0-50 μg/ml) was added into plates. After incubation, 100 μl of anti-his tag secondary antibody (anti-his-HRP (1:2000), Bersee, cat #BHR790) was added to each well. Finally, the TMB solution (100 μl/well) was added. 2M H₂SO₄ was used to stop the reaction. The OD450 was measured, and the binding curves were generated by PRISM software to analyze the affinity of candidate antibodies to human GDF15 antigen, and EC₅₀ value were calculated.

human GDF15-hFc [3] = molecular target: T2, human GDF15-hFc (human); assay: competition ELISA as in Example 2; GFRAL-his coated, antibody titrated against human GDF15-hFc
T2 construct: Recombinant hFc-tagged fusion protein expressed in 293F cells
T2 chain: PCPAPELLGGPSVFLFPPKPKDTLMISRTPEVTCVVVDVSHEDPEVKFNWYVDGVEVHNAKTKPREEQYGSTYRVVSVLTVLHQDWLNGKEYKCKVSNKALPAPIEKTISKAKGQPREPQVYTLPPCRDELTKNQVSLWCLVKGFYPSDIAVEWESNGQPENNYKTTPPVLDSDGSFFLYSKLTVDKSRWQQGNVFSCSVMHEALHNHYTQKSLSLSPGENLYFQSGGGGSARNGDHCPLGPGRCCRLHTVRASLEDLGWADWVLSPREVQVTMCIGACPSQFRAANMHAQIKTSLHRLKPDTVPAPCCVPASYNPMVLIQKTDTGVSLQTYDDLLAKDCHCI
Description: (§2) The ELISA assay was performed to measure the inhibitory activity of anti-GDF15 antibodies in concentration gradients to block GDF15 binding to GFRAL receptor. IC₅₀ values were used as a measure for neutralizing activity of candidate molecules. Briefly, 96-well plates were coated with 100 ng/well of GFRAL-his protein (SEQ ID NO: 74), and incubated for 1 h at 37° C. The plates were washed with PBST and then blocked for 1 hour at 37° C. with 1% BSA. Gradient-diluted antibodies (dose range 0˜10 μg/ml) was added into each well, immediately followed by equal volume of human GDF15-hFc protein ([…]). After incubation and washing, 100 μl of anti-human IgG secondary antibody (goat anti-human IgG-HRP, Sigma, A8667) was added to each well. Finally, TMB solution (100 μl/well) was added. 2M H₂SO₄ was used to stop the reaction. The OD450 was measured and the binding curve was generated by PRISM to calculate the IC₅₀ value.

human GDF15-his [4] = molecular target: T1, human GDF15-his; assay: cell-based or functional assay
human GDF15-hFc [5] = molecular target: T2, human GDF15-hFc; assay: competition ELISA; GFRAL-his coated, antibody titrated against human GDF15-hFc, anti-human IgG-HRP detection
Description: as §2

human GDF15-his [6] = molecular target: T1, human GDF15-his; assay: cell-based or functional assay
human GDF15-his [7] = molecular target: T1, human GDF15-his; assay: ELISA as in Example 2: plate coated with the antibody, graded human GDF15-his, anti-his-HRP, OD450; the sheet's x axis reads 'Log GDF15 Antibody (nM)'
Description: as §1

B1: hum_R54-1 (antibody, V domains shown)
VH: EVQLLESGGGLVQPGGSLRLSCAVSGFSLSSYDMTWVRQAPGKGLEWIGIISGSGNTYYASWAKGRFTISRDNSKNTVYLQMNSLRAEDTAVYFCARGILVYADYGDHNLWGQGTLVTVSS
VL: DIVMTQSPATLSVSPGERATLSCQASEDIYTNLAWFQQKPGQPPRLLIYAASTLASGIPARFSGSGSGTEFTLTISSLQSEDFAVYFCLGVYTYISAEGAFGQGTKVEIK
notes: Tested in human IgG1 format
Human GDF15-his [1]
  IC50, GFRAL/RET reporter cell assay as in Example 2: 0.11 nM
Human GDF15-his [2]
  EC50: 142 nM
Human GDF15-hFc [3]
  IC50: 1 nM

B2: hum_R54-8 (antibody, V domains shown)
VH: EVQLLESGGGLVQPGGSLRLSCAVSGFSLSSYDMTWVRQAPGKGLEWIGIISGSGSTYYASWAKGRFTISKDSSKNTVYLQMNSLRAEDTAVYFCARGILVYADYGDHNLWGQGTLVTVSS
VL: DIVMTQSPATLSVSPGERATLSCQASEDIYTNLAWFQQKPGQPPRLLIYAASTLASGIPARFSGSGSGTEFTLTISSLQSEDFAVYYCLGVYTYISAEGAFGQGTKVEIK
notes: Tested in human IgG1 format
Human GDF15-his [1]
  IC50, GFRAL/RET reporter cell assay as in Example 2: 0.03 nM
Human GDF15-his [2]
  EC50: 91.7 nM
Human GDF15-hFc [3]
  IC50: 1 nM

B3: hum_R54-7 (antibody, V domains shown)
VH: EVQLLESGGGLVQPGGSLRLSCAVSGFSLSSYDMTWVRQAPGKGLEWIGIISNSGSTYYASWAKGRFTISKDSSKNTVYLQMNSLRAEDTAVYFCARGILVYADYGDHNLWGQGTLVTVSS
VL: DIVMTQSPATLSVSPGERATLSCQASEDIYTNLAWFQQKPGQPPRLLIYAASTLASGIPARFSGSGSGTEFTLTISSLQSEDFAVYYCLGVYTYISAEGAFGQGTKVEIK
notes: Tested in human IgG1 format
Human GDF15-his [1]
  IC50, GFRAL/RET reporter cell assay as in Example 2: 0.04 nM
Human GDF15-his [2]
  EC50: 111 nM
Human GDF15-hFc [3]
  IC50: 1.36 nM

B4: hum_R54-6 (antibody, V domains shown)
VH: EVQLLESGGGLVQPGGSLRLSCAVSGFSLSSYDMTWVRQAPGKGLEWIGIISSSGNTYYASWAKGRFTISKDSSKNTVYLQMNSLRAEDTAVYFCARGILVYADYGDHNLWGQGTLVTVSS
VL: DIVMTQSPATLSVSPGERATLSCQASEDIYTNLAWFQQKPGQPPRLLIYAASTLASGIPARFSGSGSGTEFTLTISSLQSEDFAVYYCLGVYTYISAEGAFGQGTKVEIK
notes: Tested in human IgG1 format
Human GDF15-his [1]
  IC50, GFRAL/RET reporter cell assay as in Example 2: 0.05 nM
Human GDF15-his [2]
  EC50: 123 nM
Human GDF15-hFc [3]
  IC50: 1.49 nM

B5: hum_R54-2 (antibody, V domains shown)
VH: EVQLLESGGGLVQPGGSLRLSCAVSGFSLSSYDMTWVRQAPGKGLEWIGIISSSGNTYYASWAKGRFTISRDNSKNTVYLQMNSLRAEDTAVYFCARGILVYADYGDHNLWGQGTLVTVSS
VL: DIVMTQSPATLSVSPGERATLSCQASEDIYTNLAWFQQKPGQPPRLLIYAASTLASGIPARFSGSGSGTEFTLTISSLQSEDFAVYFCLGVYTYISAEGAFGQGTKVEIK
notes: Tested in human IgG1 format
Human GDF15-his [1]
  IC50, GFRAL/RET reporter cell assay as in Example 2: 0.1 nM
Human GDF15-his [2]
  EC50: 156 nM
Human GDF15-hFc [3]
  IC50: 0.8 nM

B6: hum_R54-5 (antibody, V domains shown)
VH: EVQLLESGGGLVQPGGSLRLSCAVSGFSLSSYDMTWVRQAPGKGLEWIGIISGSGNTYYASWAKGRFTISKDSSKNTVYLQMNSLRAEDTAVYFCARGILVYADYGDHNLWGQGTLVTVSS
VL: DIVMTQSPATLSVSPGERATLSCQASEDIYTNLAWFQQKPGQPPRLLIYAASTLASGIPARFSGSGSGTEFTLTISSLQSEDFAVYYCLGVYTYISAEGAFGQGTKVEIK
notes: Tested in human IgG1 format
Human GDF15-his [1]
  IC50, GFRAL/RET reporter cell assay as in Example 2: 0.08 nM
Human GDF15-his [2]
  EC50: 98.4 nM
Human GDF15-hFc [3]
  IC50: 0.89 nM

B7: hum_R54-3 (antibody, V domains shown)
VH: EVQLLESGGGLVQPGGSLRLSCAVSGFSLSSYDMTWVRQAPGKGLEWIGIISNSGSTYYASWAKGRFTISRDNSKNTVYLQMNSLRAEDTAVYFCARGILVYADYGDHNLWGQGTLVTVSS
VL: DIVMTQSPATLSVSPGERATLSCQASEDIYTNLAWFQQKPGQPPRLLIYAASTLASGIPARFSGSGSGTEFTLTISSLQSEDFAVYFCLGVYTYISAEGAFGQGTKVEIK
notes: Tested in human IgG1 format
Human GDF15-his [1]
  IC50, GFRAL/RET reporter cell assay as in Example 2: 0.07 nM
Human GDF15-his [2]
  EC50: 173 nM
Human GDF15-hFc [3]
  IC50: 1.24 nM

B8: hum_R54-4 (antibody, V domains shown)
VH: EVQLLESGGGLVQPGGSLRLSCAVSGFSLSSYDMTWVRQAPGKGLEWIGIISGSGSTYYASWAKGRFTISRDNSKNTVYLQMNSLRAEDTAVYFCARGILVYADYGDHNLWGQGTLVTVSS
VL: DIVMTQSPATLSVSPGERATLSCQASEDIYTNLAWFQQKPGQPPRLLIYAASTLASGIPARFSGSGSGTEFTLTISSLQSEDFAVYFCLGVYTYISAEGAFGQGTKVEIK
notes: Tested in human IgG1 format
Human GDF15-his [1]
  IC50, GFRAL/RET reporter cell assay as in Example 2: 0.08 nM
Human GDF15-his [2]
  EC50: 167 nM
Human GDF15-hFc [3]
  IC50: 1.14 nM

B9: GDF-R40-rabIg1 (antibody, V domains shown)
VH: QSVKESEGRLVTPGTPLTLTCTASGFSLSSHWMSWVRQAPGKGLEWIGFVSPSGRAYYTSWVNGRFTISKTSTTVDLKITSPTTEDTATYFCARGYTSGLDIWGPGTLVTVSS
VL: AIDMTQTPSPVSATVGGTVTISCQSSKSVVNGDWLAWYQQKPGQPPKLLIYDAATLASGVPSRFKGSGSGTQFTLTISDVQCADAATYYCAGVYNNDSDNGFGGGTEVVVK
notes: Full-length rabbit antibody: rabbit IgG1 heavy constant and rabbit light constant; also called GDF15-R40-rabIg1
Human GDF15-his [4]
  IC50, 293T-GFRAL/RET-Luc SRE luciferase reporter cells stimulated with human GDF15-his (15 ng/ml): 0.27 nM
Human GDF15-hFc [5]
  IC50: 1.63 nM

B10: hum_R37-1 (antibody, V domains shown)
VH: EVQLVESGGGLVKPGGSLRLSCAASGFSLSNYYMSWVRQAPGKGLEWIGMISFSGTTYATWAKGRFTISKDSSKNTVYLQINSLKTEDTAVYFCARVVYAGWTYPLGIWGQGTLVTVSS
VL: DIQLTQSPSSLSASVGDRVTITCQASQSISSVLSWYQQKPGKPPKALIYEASILASGVPSRFSGSGSGTDFTLTISSLQPEDFATYYCQANYDVYNYGNPFGGGTKVEIK
notes: Tested in human IgG1 format
Human GDF15-his [6]
  IC50 (read off the curve), SRE-luciferase signal in 293T-GFRAL/RET-Luc cells with human GDF15-his: ~0.2 nM
Human GDF15-hFc [3]
  IC50: 1.74 nM
Human GDF15-his [7]
  EC50 (read off the curve): ~50 nM

B11: hum_R37-3 (antibody, V domains shown)
VH: EVQLVESGGGLVKPGGSLRLSCAASGFSLSNYYMSWVRQAPGKGLEWIGMISFSGTTYATWAKGRFTISKDDSKNTVYLQINSLKTEDTAVYFCARVVYAGWTYPLGIWGQGTLVTVSS
VL: DIQLTQSPSSLSASVGDRVTITCQASQSISSVLSWYQQKPGKPPKALIYEASILASGVPSRFSGSGSGTDFTLTISSLQPEDFATYYCQANYDVYNYGNPFGGGTKVEIK
notes: Tested in human IgG1 format
Human GDF15-his [6]
  IC50 (read off the curve), SRE-luciferase signal in 293T-GFRAL/RET-Luc cells with human GDF15-his: ~0.1 nM
Human GDF15-hFc [3]
  IC50: 1.73 nM
Human GDF15-his [7]
  EC50 (read off the curve): ~60 nM

B12: GDF-R46-rabIg1 (antibody, V domains shown)
VH: SQTVKESGGRLVTPGTPLTLTCTASGFSLSNYYMSWVRQAPGEGLEWIGMISFSGTTHATWAKGRFTISKTSTTVDLKITSPTSEDTATYFCARVVYAGWTYPLGIWGPGTLVTVSS
VL: AQVMTQTPASVSEPVGGTVTIKCQASQSISSVLSWYQQKPGQPPKVLIYEASTLASGVPSRFKGSGSGTDFTLAISDLECADAATYYCQANYDVYNYGNPFGGGTEVVVK
notes: Full-length rabbit antibody: rabbit IgG1 heavy constant and rabbit light constant; also called GDF15-R46-rabIg1
Human GDF15-his [4]
  IC50, 293T-GFRAL/RET-Luc SRE luciferase reporter cells stimulated with human GDF15-his (15 ng/ml): 0.19 nM
Human GDF15-hFc [5]
  IC50: 1.62 nM
